In PMC9584350 one finds response data, which are given here for 2 molecules.

Substitutions are numbered along the chain they refer to. Names may count otherwise.

The test has as its target Arf6 (co-precipitated with FLAG–AMPKα2 from cells), P62330. Nature of the test: co-immunoprecipitation (IP anti-FLAG, immunoblot for Arf6), band quantification. The conditions noted are these: chain shown with the change; HEK 293T cells transfected with FLAG-AMPKα2 and Arf6-myc; n=4; empty (no FLAG-AMPKα2) control = 1; parent: est. 6.0; read off a plot. (In general: In western blotting, separated proteins are transferred to a membrane and probed.)

Sequence of Arf6 (co-precipitated with FLAG–AMPKα2 from cells), P62330 (P62330 whole entry): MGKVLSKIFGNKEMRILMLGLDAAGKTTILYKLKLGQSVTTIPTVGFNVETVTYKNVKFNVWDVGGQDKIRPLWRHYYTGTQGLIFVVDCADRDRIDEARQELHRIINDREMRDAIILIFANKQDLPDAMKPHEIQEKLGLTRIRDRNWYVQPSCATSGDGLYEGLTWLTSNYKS

B1: FLAG–AMPKα2-WT, P54646 W402A; H403A; L404A; G405A; I406A (protein)
chain: MAEKQKHDGRVKIGHYVLGDTLGVGTFGKVKIGEHQLTGHKVAVKILNRQKIRSLDVVGKIKREIQNLKLFRHPHIIKLYQVISTPTDFFMVMEYVSGGELFDYICKHGRVEEMEARRLFQQILSAVDYCHRHMVVHRDLKPENVLLDAHMNAKIADFGLSNMMSDGEFLRTSCGSPNYAAPEVISGRLYAGPEVDIWSCGVILYALLCGTLPFDDEHVPTLFKKIRGGVFYIPEYLNRSVATLLMHMLQVDPLKRATIKDIREHEWFKQDLPSYLFPEDPSYDANVIDDEAVKEVCEKFECTESEVMNSLYSGDPQDQLAVAYHLIIDNRRIMNQASEFYLASSPPSGSFMDDSAMHIPPGLKPHPERMPPLIADSPKARCPLDALNTTKPKSLAVKKAKAAAAARSQSKPYDIMAEVYRAMKQLDFEWKVVNAYHLRVRRKNPVTGNYVKMSLQLYLVDNRSYLLDFKSIDDEVVEQRSGSSTPQRSCSAAGLHRPRSSFDSTTAESHSLSGSLTGSLTGSTLSSVSPRLGSHTMDFFEMCASLITTLAR
For B1, the response was determined as 1.4.

B2: FLAG–AMPKα2-WT, P54646 E418A; V419A; Y420A; R421A (protein)
chain: B1 chain with A402W, A403H, A404L, A405G, A406I, E418A, V419A, Y420A, R421A
Consider B2, for which the response was 1.3.
